Assay results taken from patent US20120077731A1 (Ablynx, published 2012).

What was measured:
[1] = molecular target: T1, Human membrane IL-6R on cells (human, UniProt P08887 20-468); experiment: flow cytometry, human PBL, monocytes donor 1
T1 construct: whole, on cells; also called cell-surface expressed human IL-6R
T1 sequence (looked up): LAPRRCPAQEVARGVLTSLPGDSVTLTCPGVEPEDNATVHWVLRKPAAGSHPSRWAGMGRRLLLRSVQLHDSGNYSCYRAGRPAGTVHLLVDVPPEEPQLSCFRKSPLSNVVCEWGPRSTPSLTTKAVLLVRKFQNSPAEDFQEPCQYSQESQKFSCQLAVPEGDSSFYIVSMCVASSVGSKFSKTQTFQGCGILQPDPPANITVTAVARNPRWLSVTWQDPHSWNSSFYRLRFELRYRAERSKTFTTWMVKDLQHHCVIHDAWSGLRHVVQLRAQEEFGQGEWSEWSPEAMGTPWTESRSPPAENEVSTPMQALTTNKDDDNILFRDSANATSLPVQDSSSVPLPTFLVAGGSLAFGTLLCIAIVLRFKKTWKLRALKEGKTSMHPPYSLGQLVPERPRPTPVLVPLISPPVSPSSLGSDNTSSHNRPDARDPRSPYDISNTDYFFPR

OSM-R = molecular target: T2, OSM-R (UniProt Q99650 28-739, limits assumed); experiment: competitive binding ELISA: IL6R20A11 (0.05 nM) pre-incubated with a series of the receptor; free IL6R20A11 captured on sIL-6R and detected via anti-His
T2 sequence (looked up): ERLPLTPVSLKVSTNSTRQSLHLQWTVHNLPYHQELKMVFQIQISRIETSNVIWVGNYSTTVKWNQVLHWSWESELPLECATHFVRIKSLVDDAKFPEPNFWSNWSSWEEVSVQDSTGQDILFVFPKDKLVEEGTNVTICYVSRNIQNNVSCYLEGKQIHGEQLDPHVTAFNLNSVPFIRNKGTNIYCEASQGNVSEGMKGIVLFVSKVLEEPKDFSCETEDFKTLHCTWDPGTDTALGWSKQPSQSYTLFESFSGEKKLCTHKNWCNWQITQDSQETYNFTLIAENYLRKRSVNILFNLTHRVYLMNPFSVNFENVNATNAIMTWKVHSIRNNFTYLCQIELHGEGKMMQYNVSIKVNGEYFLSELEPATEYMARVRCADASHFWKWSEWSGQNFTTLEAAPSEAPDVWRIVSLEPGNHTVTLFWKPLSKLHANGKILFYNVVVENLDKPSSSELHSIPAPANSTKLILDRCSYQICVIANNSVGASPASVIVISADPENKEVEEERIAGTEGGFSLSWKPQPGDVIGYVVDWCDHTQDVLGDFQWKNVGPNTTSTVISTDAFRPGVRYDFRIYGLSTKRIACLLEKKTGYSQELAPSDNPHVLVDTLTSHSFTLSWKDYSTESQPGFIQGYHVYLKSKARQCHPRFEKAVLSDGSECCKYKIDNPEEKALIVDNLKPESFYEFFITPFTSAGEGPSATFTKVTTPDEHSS

CNTF-R = molecular target: T3, CNTF-R (UniProt P26992 23-346, limits assumed); experiment: as above
T3 sequence (looked up): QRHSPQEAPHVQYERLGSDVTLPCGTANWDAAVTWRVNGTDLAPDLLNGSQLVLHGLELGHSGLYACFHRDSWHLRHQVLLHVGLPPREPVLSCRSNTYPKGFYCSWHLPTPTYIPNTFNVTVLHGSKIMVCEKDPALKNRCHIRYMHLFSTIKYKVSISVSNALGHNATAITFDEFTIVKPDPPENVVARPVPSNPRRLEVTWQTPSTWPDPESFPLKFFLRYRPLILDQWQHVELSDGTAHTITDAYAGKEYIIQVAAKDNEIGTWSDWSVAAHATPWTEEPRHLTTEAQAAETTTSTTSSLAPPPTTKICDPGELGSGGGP

IL-11R/Fc = molecular target: T4, IL-11R/Fc (UniProt Q14626 23-370); experiment: as above
T4 construct: not shown: Fc part, not described
T4 sequence (looked up): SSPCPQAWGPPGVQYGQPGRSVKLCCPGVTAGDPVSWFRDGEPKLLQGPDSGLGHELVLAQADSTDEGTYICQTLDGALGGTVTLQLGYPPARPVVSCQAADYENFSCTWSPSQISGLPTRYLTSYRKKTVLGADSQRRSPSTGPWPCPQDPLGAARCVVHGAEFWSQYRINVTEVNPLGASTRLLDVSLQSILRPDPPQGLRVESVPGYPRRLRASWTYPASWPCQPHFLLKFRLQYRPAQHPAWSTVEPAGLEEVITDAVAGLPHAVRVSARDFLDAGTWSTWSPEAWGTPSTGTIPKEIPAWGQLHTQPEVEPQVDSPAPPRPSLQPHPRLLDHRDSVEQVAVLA

[2] = molecular target: T1, Human membrane IL-6R on cells; experiment: flow cytometry, human PBL, granulocytes donor 1
Cyno plasma sIL-6R = molecular target: T5, Cyno plasma sIL-6R (cynomolgus monkey, UniProt A0A2K5WN54 60-396); experiment: plasma potency assay, cyno plasma, 2.4 nM IL6; blocked ligand IL-6
T5 construct: also called cynomolgus sIL-6R
T5 sequence: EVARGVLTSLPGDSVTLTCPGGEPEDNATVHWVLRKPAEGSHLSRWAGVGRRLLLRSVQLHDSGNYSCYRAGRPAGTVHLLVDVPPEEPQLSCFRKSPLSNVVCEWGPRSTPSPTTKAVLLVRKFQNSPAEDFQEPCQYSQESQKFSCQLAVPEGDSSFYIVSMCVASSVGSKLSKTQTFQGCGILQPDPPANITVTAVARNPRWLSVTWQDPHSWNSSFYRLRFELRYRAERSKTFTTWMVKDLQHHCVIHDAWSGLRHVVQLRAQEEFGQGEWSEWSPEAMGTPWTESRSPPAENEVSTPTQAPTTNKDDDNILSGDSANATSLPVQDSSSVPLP

EC50 [1]: 3.62 nM
binding result (OSM-R): no binding (tested: 5 nM (log conc 0.7))
binding result (CNTF-R): no binding (tested: 5 nM (log conc 0.7))
binding result (IL-11R/Fc): no binding (tested: 5 nM (log conc 0.7))
EC50 [2]: 2.42 nM
IC50 (Cyno plasma sIL-6R): 0.09 nM
B1: PMP20A11 (VHH)
VHH: EVQLVESGGGLVQPGGSLRLSCAASGSVFKINVMAWYRQAPGKGRELVAGIISGGSTSYADSVKGRFTISRDNAKNTLYLQMNSLRPEDTAVYYCAFITTESDYDLGRRYWGQGTLVTVSS
notes: also called IL6R20A11; IL6R300; not shown: c-myc and (His)6 tags
